Tests used:
SepG–mCherry = target: T1, SepG–mCherry (S. coelicolor, UniProt Q9S2X3 1-94); assay: FRET or BRET; acceptor photobleaching in living S. coelicolor M145 hyphae; donor eGFP, acceptor mCherry; post-bleach donor intensity relative to the pre-bleach intensity (set to 1); conditions: partners not purified
T1 construct: SepG (YlmG), SCO2078, 94 aa membrane protein of Streptomyces coelicolor; called full-length sepG in the methods; egfp of pGWS755 replaced by the gene for mCherry; also called YlmG; SCO2078; source: S. coelicolor M145, expressed from the ftsZ promoter region (pGWS791), in living aerial hyphae; not shown: mCherry, C-terminal, kept
T1 sequence (looked up): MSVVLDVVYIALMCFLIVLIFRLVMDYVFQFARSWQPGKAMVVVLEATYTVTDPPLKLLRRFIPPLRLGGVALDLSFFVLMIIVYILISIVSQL

FtsZ–mCherry = target: T2, FtsZ–mCherry (S. coelicolor, UniProt P45500 1-399); assay: as above; conditions: partners not purified
T2 construct: FtsZ, cell division scaffold protein of Streptomyces coelicolor; The FtsZ–mCherry construct is not described in the main text; source: S. coelicolor M145, expressed in living aerial hyphae
T2 sequence (looked up): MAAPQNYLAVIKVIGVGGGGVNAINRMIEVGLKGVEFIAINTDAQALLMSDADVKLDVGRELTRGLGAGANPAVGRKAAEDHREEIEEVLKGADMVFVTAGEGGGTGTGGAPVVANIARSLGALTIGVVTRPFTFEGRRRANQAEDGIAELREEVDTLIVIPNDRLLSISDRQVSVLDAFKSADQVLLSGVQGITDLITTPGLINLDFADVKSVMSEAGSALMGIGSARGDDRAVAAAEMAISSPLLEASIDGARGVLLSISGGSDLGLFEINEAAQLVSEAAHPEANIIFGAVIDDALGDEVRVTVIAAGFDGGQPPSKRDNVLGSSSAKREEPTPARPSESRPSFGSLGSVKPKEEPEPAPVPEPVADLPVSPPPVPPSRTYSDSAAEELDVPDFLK

B1: SsgB–eGFP (natural protein, S. coelicolor, UniProt Q9L268 1-137, looked up)
chain: MNTTVSCELHLRLVVSSESSLPVPAGLRYDTADPYAVHATFHTGAEETVEWVFARDLLAEGLHRPTGTGDVRVWPSRSHGQGVVCIALSSPEGEALLEAPARALESFLKRTDAAVPPGTEHRHFDLDQELSHILAES
notes: SsgB, SCO1541, FtsZ-recruiting cell division protein of Streptomyces coelicolor; also called SCO1541; source: S. coelicolor M145, expressed in living aerial hyphae
SepG–mCherry
  donor fluorescence intensity after acceptor photobleaching, relative to before (FRET): 1.05
FtsZ–mCherry
  donor fluorescence intensity after acceptor photobleaching, relative to before (FRET): 1.08

— publication PMC4852450, “SepG coordinates sporulation-specific cell division and nucleoid organization in Streptomyces coelicolor” (Open Biology, 2016)
